Measured values taken from patent US20250277790A1.

What was measured:
[1] = molecular target: L834R EGFR tagged with mTurquoise at the C-terminus, in plasma membrane-derived vesicles from transfected CHO cells (human) (UniProt P00533); assay: cell-based or functional assay
[2] = molecular target: human EGFR tagged with the fluorescent protein mTurquoise at the C-terminus (wild-type), in plasma membrane-derived vesicles from transfected CHO cells (human) (UniProt P00533); assay: cell-based or functional assay

Chain of Epiregulin (1195EP025 CF, R&D Systems) (O14944 63-108 limits assumed): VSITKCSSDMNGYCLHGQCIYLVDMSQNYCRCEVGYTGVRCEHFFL

| Substance | EC50 of Y1068 phosphorylation per EGFR molecule [1] [nM] | EC50 of Y1173 phosphorylation per EGFR molecule [1] [nM] | Etop of Y1068 phosphorylation per EGFR molecule [1] | Etop of Y1173 phosphorylation per EGFR molecule [1] | EC50 of Y1068 phosphorylation per EGFR molecule [2] [nM] | EC50 of Y1173 phosphorylation per EGFR molecule [2] [nM] | Etop of Y1068 phosphorylation per EGFR molecule [2] | Etop of Y1173 phosphorylation per EGFR molecule [2] | βlig (Y1068 vs Y1173), lig vs rho-mEGF [2] |
| --- | --- | --- | --- | --- | --- | --- | --- | --- | --- |
| Epiregulin (1195EP025 CF, R&D Systems) (from UniProt O14944 63-108) (ligand) | 5.8 | 0.7 | 0.2 | 0.09 | 19.5 | 16.2 | 0.43 | 0.16 | -0.23 |
| TGFα (239A100, R&D Systems) (from UniProt P01135 40-89) (ligand) | 3.2 | 0.3 | 0.17 | 0.12 | 3.4 | 5.2 | 0.59 | 0.17 | 0.13 |
